Columns and labels:
[1] = system: other members of the LDLR family (LDLR, LRP, LRP1 B, VLDLR, apoER2); assay: ^125I-Mesd binding to cells expressing other members of the LDLR family; set-up: species or system human; settings: ^125I-Mesd 5 nM, 4 hours at 4° C., HEK293, CHO, MEF cells
Procedure: (§1) Cells (2×10^5) were seeded into 12-well dishes 1 day prior to assay. Ligand-binding buffer (minimal Eagle's medium containing 0.6% BSA with a different concentration of radioligand, 0.6 ml/well) was added to cell monolayers, in the absence or the presence of 500 nM unlabeled RAP or 500 nM unlabeled Mesd, followed with incubation for 0-4 hours at 4° C. Thereafter, overlying buffer containing unbound ligand was removed, and cell monolayers were washed and lysed in low-SDS lysis buffer (62.5 mM Tris-HCl pH 6.8, 0.2% SDS, 10% v/glycerol) and counted.
(§2) To determine whether Mesd binds to other members of the LDLR family, ^125I-Mesd binding analysis was performed with four groups of cells expressing different members of the LDLR family (FIG. 2). In the first experiment, HEK293 cells were transiently transfected with cDNAs for the LDLR, LRP5, LRP6 or empty pcDNA3 vector. […]

[2] = biological target: T1, other members of the LDLR family (LDLR, LRP, LRP1 B, VLDLR, apoER2) (Homo sapiens, UniProt Q07954); assay: as above; settings: ^125I-Mesd 5 nM, 4 hours at 4° C.
T1 construct: expressed in transfected cells; host or cells: HEK293 (transient HA-LDLR); also endogenous receptors in MEF lines, MCF-7, U87 and SMC
Procedure: as §1, §2

Wnt signaling = assay: Wnt signalling TCF/LEF-Luc assay in HEK293 cells (Wnt3A conditioned medium plus Dkk1); type: cell-based; settings: Wnt3A conditioned medium plus Dkk1 protein at 10 nM
Procedure: HEK293 cells were plated into six-well plates. For each well, […] of the TOP-[…] luciferase construct (Upstate Biotechnology) was cotransfected with 0.8 μg Mesd-expressing vector, 0.8 μg Mesd mutant-expressing vector, or empty vector. A β-galactosidase-expressing vector (Promega, Madison, Wis.) was included as an internal control for transfection efficiency. After 48 hours, cells were lysed and both luciferase and β-galactosidase activities were determined with enzyme assay kits (Promega). The luciferase activity was determined with a luminometer using the Dual Luciferase Assay system (Promega). Luciferase activity was normalized to the activity of the P-galactosidase.

LRP6 = LRP6 (Homo sapiens, UniProt O75581); assay: Cell surface Myc-DKK1 binding and immunodetection on LRP6-transduced HT1080 cells; set-up: plasmid pCS-Myc-hLRP6 containing the full-length human LRP6 cDNA; HA; expressed in transfected cells; host or cells: human HT1080 cells, stably transduced (pLNCX2 retroviral vector); settings: 1 μM Mesd, room temperature 60 minutes, immunofluorescence
Description: Values are the means of triple determinations with the s.d. indicated by error bars. Bar, 10 μm.

Chain of LRP6 (O75581 20-1613): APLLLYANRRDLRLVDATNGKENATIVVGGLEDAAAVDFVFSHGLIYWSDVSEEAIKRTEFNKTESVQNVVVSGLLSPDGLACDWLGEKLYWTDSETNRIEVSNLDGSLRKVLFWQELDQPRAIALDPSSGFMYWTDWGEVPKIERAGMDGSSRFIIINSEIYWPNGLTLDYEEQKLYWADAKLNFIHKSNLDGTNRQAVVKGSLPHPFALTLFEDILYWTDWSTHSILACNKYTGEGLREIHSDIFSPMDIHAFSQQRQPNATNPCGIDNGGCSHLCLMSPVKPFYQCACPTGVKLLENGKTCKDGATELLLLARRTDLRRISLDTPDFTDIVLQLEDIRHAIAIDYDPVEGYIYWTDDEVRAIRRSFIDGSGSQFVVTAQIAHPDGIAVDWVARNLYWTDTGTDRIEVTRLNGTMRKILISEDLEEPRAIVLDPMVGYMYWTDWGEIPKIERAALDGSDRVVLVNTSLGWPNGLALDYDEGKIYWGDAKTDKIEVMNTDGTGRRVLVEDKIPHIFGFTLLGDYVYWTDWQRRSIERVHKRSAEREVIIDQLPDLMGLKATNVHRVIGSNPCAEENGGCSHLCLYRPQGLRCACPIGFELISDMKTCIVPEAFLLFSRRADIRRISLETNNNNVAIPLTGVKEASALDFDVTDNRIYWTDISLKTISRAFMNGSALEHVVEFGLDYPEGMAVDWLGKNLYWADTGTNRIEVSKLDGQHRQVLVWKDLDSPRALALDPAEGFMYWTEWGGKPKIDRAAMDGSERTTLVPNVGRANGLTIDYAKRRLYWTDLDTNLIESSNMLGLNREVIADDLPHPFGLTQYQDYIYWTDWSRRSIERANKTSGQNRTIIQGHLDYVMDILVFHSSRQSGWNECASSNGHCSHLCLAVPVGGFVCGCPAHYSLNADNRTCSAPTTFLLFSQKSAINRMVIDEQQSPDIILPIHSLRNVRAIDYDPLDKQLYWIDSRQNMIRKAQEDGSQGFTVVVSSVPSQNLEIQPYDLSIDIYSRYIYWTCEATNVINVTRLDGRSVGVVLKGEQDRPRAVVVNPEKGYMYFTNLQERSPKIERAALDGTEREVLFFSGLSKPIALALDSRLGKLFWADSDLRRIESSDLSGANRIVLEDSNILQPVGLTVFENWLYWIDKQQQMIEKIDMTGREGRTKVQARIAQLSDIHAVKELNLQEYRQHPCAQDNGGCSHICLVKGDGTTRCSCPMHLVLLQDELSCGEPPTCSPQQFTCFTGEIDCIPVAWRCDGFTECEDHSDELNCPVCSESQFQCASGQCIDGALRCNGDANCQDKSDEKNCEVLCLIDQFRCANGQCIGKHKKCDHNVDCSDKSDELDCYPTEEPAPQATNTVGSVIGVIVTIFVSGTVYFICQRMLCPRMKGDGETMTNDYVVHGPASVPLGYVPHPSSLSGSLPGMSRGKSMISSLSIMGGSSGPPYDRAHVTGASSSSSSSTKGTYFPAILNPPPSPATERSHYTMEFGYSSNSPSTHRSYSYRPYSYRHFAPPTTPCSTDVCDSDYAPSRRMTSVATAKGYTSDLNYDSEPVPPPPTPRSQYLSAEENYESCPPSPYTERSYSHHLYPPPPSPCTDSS

Specific Mesd binding to U87 or SMC (express abundant LRP) [2]: minimal
Effect on binding of Myc-DKK1 to LRP6 at the cell surface (LRP6): completely blocked
B1: Mesd: recombinant wild-type mouse Mesd, polyhistidine tail at the N-terminus, lacks the signal peptide, expressed in E. coli (protein)
chain: ADTPGEATPPPRKKKDIRDYNDADMARLLEQWEKDDDIEEGDLPEHKRPSAPIDFSKLDPGKPESILKMTKKGKTLMMFVTVSGNPTEKETEEITSLWQGSLFNANYDVQRFIVGSDRAIFMLRDGSYAWEIKDFLVSQDRCAEVTLEGQMYPGKGGGSKEKNKTKPEKAKKKEGDRKPRASKEDNRAGSRREDL
modifications: left off: small tags and cut ends
notes: recombinant wild-type mouse Mesd, polyhistidine tail at the N-terminus, lacks the signal peptide, expressed in E. coli
^125I-Mesd binding to other members of the LDLR family [1]: not significantly
Restoring of Wnt signaling inhibited by Dkk1 (luciferase activity) (Wnt signaling): at least partially restoring Wnt signaling
